Assay results: US8241610B2, “Adjuvant combinations of liposomes and mycobacterial lipids for immunization compositions and vaccines” (Statens Serum Institut, priority 2003, dated 2012)

Experiments:
blood lymphocytes = experiment: IFN-gamma release from blood lymphocytes of immunized mice re-stimulated in vitro with antigen (ELISA); settings: mouse, in vivo, sc
antigen-specific IgG = system: antigen-specific IgG; parameters: species or system mice; settings: mouse, in vivo, sc

Tetanus toxoid: Tetanus toxoid from Statens Serum Institut; given in total lipids/DDA
Immune response: release of IFN-gamma from blood lymphocytes (blood lymphocytes): 52500 ± 13500

B1: OVA: Ovalbumin, Sigma Aldrich; given in total lipids/DDA (protein, UniProt P01012 2-386, looked up)
Ovalbumin: GSIGAASMEFCFDVFKELKVHHANENIFYCPIAIMSALAMVYLGAKDSTRTQINKVVRFDKLPGFGDSIEAQCGTSVNVHSSLRDILNQITKPNDVYSFSLASRLYAEERYPILPEYLQCVKELYRGGLEPINFQTAADQARELINSWVESQTNGIIRNVLQPSSVDSQTAMVLVNAIVFKGLWEKAFKDEDTQAMPFRVTEQESKPVQMMYQIGLFRVASMASEKMKILELPFASGTMSMLVLLPDEVSGLEQLESIINFEKLTEWTSSNVMEERKIKVYLPRMKMEEKYNLTSVLMAMGITDVFSSSANLSGISSAESLKISQAVHAAHAEINEAGREVVGSAEAGVDAASVSEEFRADHPFLFCIKHIATNAVLFFGRCVSP
Immune response: release of IFN-gamma from blood lymphocytes (blood lymphocytes): 793 ± 81 | IgG1, antigen-specific levels (midpoint titres) (antigen-specific IgG): 2500 | IgG2a, antigen-specific levels (midpoint titres) (antigen-specific IgG): <100
